Measurements taken from article PMC12107181 (2025).

B1: AD-TCP10 [Arabidopsis] / BD-COP1 [Arabidopsis] (parent complex)
chain 1: MGLKGYSVGEGGGEIVEVQGGHIIRATGRKDRHSKVFTSKGPRDRRVRLSAHTAIQFYDVQDRLGYDRPSKAVDWLIKKAKTAIDKLELGETTTTTTRQEPVNTKPESPTLVFQRENNDQTQFVAANLDPEDAMKTFFPATTTTNGGGGTNINFQNYPHQDDNNMVSRTTTPPPNLSQDLGLSLHPFQGNNNTVVVPETNNFTTTHFDTFGRISGWNHHDLTMTSSSSSEHQQQEQEERSNGGFMVNHHPHHHHHQPSMMTLLNSQQQQVFLGGQQQQQQRGTLQSSLFPHSFRSWDHHQTTSDHHHHQNQASSMFASSSQYGSHGMMMMQGLSFPNTTRLLHGEEATQPNSSSSPPNSHL
chain 2: MEEISTDPVVPAVKPDPRTSSVGEGANRHENDDGGSGGSEIGAPDLDKDLLCPICMQIIKDAFLTACGHSFCYMCIITHLRNKSDCPCCSQHLTNNQLYPNFLLDKLLKKTSARHVSKTASPLDQFREALQRGCDVSIKEVDNLLTLLAERKRKMEQEEAERNMQILLDFLHCLRKQKVDELNEVQTDLQYIKEDINAVERHRIDLYRARDRYSVKLRMLGDDPSTRNAWPHEKNQIGFNSNSLSIRGGNFVGNYQNKKVEGKAQGSSHGLPKKDALSGSDSQSLNQSTVSMARKKRIHAQFNDLQECYLQKRRQLADQPNSKQENDKSVVRREGYSNGLADFQSVLTTFTRYSRLRVIAEIRHGDIFHSANIVSSIEFDRDDELFATAGVSRCIKVFDFSSVVNEPADMQCPIVEMSTRSKLSCLSWNKHEKNHIASSDYEGIVTVWDVTTRQSLMEYEEHEKRAWSVDFSRTEPSMLVSGSDDCKVKVWCTRQEASVINIDMKANICCVKYNPGSSNYIAVGSADHHIHYYDLRNISQPLHVFSGHKKAVSYVKFLSNNELASASTDSTLRLWDVKDNLPVRTFRGHTNEKNFVGLTVNSEYLACGSETNEVYVYHKEITRPVTSHRFGSPDMDDAEEEAGSYFISAVCWKSDSPTMLTANSQGTIKVLVLAA
B2: AD-TCP3 [Arabidopsis] / BD-COP1 [Arabidopsis] (parent complex)
chain 1: MAPDNDHFLDSPSPPLLEMRHHQSATENGGGCGEIVEVQGGHIVRSTGRKDRHSKVCTAKGPRDRRVRLSAPTAIQFYDVQDRLGFDRPSKAVDWLITKAKSAIDDLAQLPPWNPADTLRQHAAAAANAKPRKTKTLISPPPPQPEETEHHRIGEEEDNESSFLPASMDSDSIADTIKSFFPVASTQQSYHHQPPSRGNTQNQDLLRLSLQSFQNGPPFPNQTEPALFSGQSNNQLAFDSSTASWEQSHQSPEFGKIQRLVSWNNVGAAESAGSTGGFVFASPSSLHPVYSQSQLLSQRGPLQSINTPMIRAWFDPHHHHHHHQQSMTTDDLHHHHPYHIPPGIHQSAIPGIAFASSGEFSGFRIPARFQGEQEEHGGDNKPSSASSDSRH
chain 2: B1 chain 2
B3: AD-PAP2 [Arabidopsis] / BD-COP1 [Arabidopsis] (parent complex)
chain 1: MEGSSKGLRKGAWTAEEDSLLRLCIDKYGEGKWHQVPLRAGLNRCRKSCRLRWLNYLKPSIKRGRLSNDEVDLLLRLHKLLGNRWSLIAGRLPGRTANDVKNYWNTHLSKKHESSCCKSKMKKKNIISPPTTPVQKIGVFKPRPRSFSVNNGCSHLNGLPEVDLIPSCLGLKKNNVCENSITCNKDDEKDDFVNNLMNGDNMWLENLLGENQEADAIVPEATTAEHGATLAFDVEQLWSLFDGETVELD
chain 2: B1 chain 2

Variants of: B1
Test: Y2H assay (β-galactosidase activity); parent: 0.92; read off a plot

Row | response [Miller units] | Variant
1 | ~1.1 | chain 1 MGLKGYSVGEGGGEIVEVQGGHIIRATGRKDRHSKVFTSKGPRDRRVRLSAHTAIQFYDVQDRLGYDRPSKAVDWLIKKAKTAIDKLELGETTTTTTRQEPVNTKPESPTLVFQRENNDQTQFVAANLDPEDAMKTFFPATTTTNGGGGTNINFQNYPHQDDNNMVSRTTTPPPNLSQDLGLSLHPFQGNNNTVVAAETNNFTTTHFDTFGRISGWNHHDLTMTSSSSSEHQQQEQEERSNGGFMVNHHPHHHHHQPSMMTLLNSQQQQVFLGGQQQQQQRGTLQSSLFPHSFRSWDHHQTTSDHHHHQNQASSMFASSSQYGSHGMMMMQGLSFPNTTRLLHGEEATQPNSSSSPPNSHL [chain 1 V196A, chain 1 P197A]

Variants of: B2
Test: Y2H assay (β-galactosidase activity); parent: 3; read off a plot

Row | response [Miller units] | Variant
2 | ~0.86 | chain 2 W467A

Variants of: B2
Test: Y2H assay (β-galactosidase activity); parent: 2.7; read off a plot

Row | response [Miller units] | Variant
3 | ~0.86 | chain 2 F595A

Variants of: B3
Test: Y2H assay (β-galactosidase activity); parent: 15; read off a plot

Row | response [Miller units] | Variant
4 | ~2.1 | chain 2 W467A

Variants of: B3
Test: Y2H assay (β-galactosidase activity); parent: 21; read off a plot

Row | response [Miller units] | Variant
5 | ~3.6 | chain 2 F595A
